This note sets out measurements from PMC5714350.

What all share (conditions): other: dynamic light scattering
The nature of data set [1]: dynamic light scattering; FXN^81-210 with ferric iron (FeCl3 in HEPES pH 7.5), Fe3+:protein 6:1, 8:1, 10:1.
Data set [2] is described as follows: dynamic light scattering; FXN^81-210 with Fe2+ 6:1 for 15 min, then chelator (deferiprone, DFO or BIPY) at 3 times the amount of iron; room temperature.
A short description of data set [3]: dynamic light scattering; FXN^81-210 2.5 mg/ml (0.17 mM) with ammonium iron (II) sulfate, aerobic, Fe2+:protein 2:1, 4:1, 5:1, 6:1, 10:1; room temperature; profiles every 5 min for 2 h; volume distribution.

As to “Human frataxin isoform 81–210 (FXN^81-210)”, in data set [1], the % of particles in the monomer range (hydrodynamic radius 1.6–3 nm), with iron (Fe3+ 6:1) came out at 97%; the % of particles with hydrodynamic radius 6–8.5 nm (oligomers), with iron (Fe3+ 8:1) is 84.4%; the % of particles with hydrodynamic radius 8.5–14 nm (oligomers), with iron (Fe3+ 6:1) was found to be 3%; the % of particles with hydrodynamic radius 8.5–14 nm (oligomers), with iron (Fe3+ 10:1) was found to be 86.8%. Besides, the % of particles with hydrodynamic radius 15–25 nm (oligomers), with iron (Fe3+ 8:1) in data set [1] amounted to 15.6%. In data set [2], this substance displayed a % of particles in the monomer range (hydrodynamic radius 1.6–2.1 nm), with iron (Fe2+ 6:1) and BIPY of 92%; a % of particles in the monomer range (hydrodynamic radius 1.6–2.1 nm), with iron (Fe2+ 6:1) and deferiprone of 97%; a % of particles with hydrodynamic radius 6–8.5 nm (oligomers), with iron (Fe2+ 6:1) and BIPY of 8%; a % of particles with hydrodynamic radius 6–8.5 nm (oligomers), with iron (Fe2+ 6:1) and DFO of 95%. In data set [2], this substance had a % of particles with hydrodynamic radius 8.5–14 nm (oligomers), with iron (Fe2+ 6:1) and deferiprone of 3%; a % of particles with hydrodynamic radius 15–25 nm (oligomers), with iron (Fe2+ 6:1) and DFO of 5%. In data set [3], the % of particles in the monomer range (hydrodynamic radius 1.6–2.1 nm), with iron (Fe2+ 6:1) was determined as 92%; the % of particles with hydrodynamic radius 6–8.5 nm (oligomers), with iron (Fe2+ 6:1) was 8%; the “% of particles with mean hydrodynamic radius of about 5 nm (oligomers), with iron (Fe2+ 10:1, 60 min)” value is listed as “The major fraction of the oligomers (88%)”.
